T1: human CD52 on human T-cell lymphoma HUT-78 cells (human, UniProt P31358 25-36)
T1 construct: whole, on cells; also called CAMPATH-1 antigen; CD52 positive lymphoma cells
T1 chain (looked up): GQNDTSQTSSPS

B1: VET106 VET217 anti-canine lymphoma antibody variant (mab 231 variable domains, canine lambda constant) (antibody)
light: DIQMNQSPSSLSASLGDTITITCHASQNINVWLSWYQQKPGNIPKLLIYKASNLHTGVPSRFSGSGSGTGFTLTISSLQPEDIATYYCQQGQSYPLTFGGGTKLEIKGQPKASPSVTLFPPSSEELGANKATLVCLISDFYPSGVTVAWKADGSPITQGVETTKPSKQSNNKYAASSYLSLTPDKWKSHSSFSCLVTHEGSTVEKKVAPAECS
heavy: EVKLVESGGGLVQPGGSLKLSCATSGFTFSDYYMYWVRQTPEKRLEWVAYISNGGGSTYYPDTVKGRFTISRDNAKNTLYLQMSRLKSEDTAMYYCARHGGYYAMDYWGQGTLVTVSSASTTAPSVFPLAPSCGSTSGSTVALACLVSGYFPEPVTVSWNSGSLTSGVHTFPSVLQSSGLYSLSSMVTVPSSRWPSETFTCNVAHPASKTKVDKPVPKRENGRVPRPPDCPKCPAPEMLGGPSVFIFPPKPKDTLLIARTPEVTCVVVDLDPEDPEVQISWFVDGKQMQTAKTQPREEQFNGTYRVVSVLPIGHQDWLKGKQFTCKVNNKALPSPIERTISKARGQAHQPSVYVLPPSREELSKNTVSLTCLIKDFFPPDIDVEWQSNGQQEPESKYRTTPPQLDEDGSYFLYSKLSVDKSRWQRGDTFICAVMHEALHNHYTQKSLSHSPGK
B2: VET107 VET217 anti-canine lymphoma antibody variant (mab 231 variable domains, canine kappa constant) (antibody)
light: DIQMNQSPSSLSASLGDTITITCHASQNINVWLSWYQQKPGNIPKLLIYKASNLHTGVPSRFSGSGSGTGFTLTISSLQPEDIATYYCQQGQSYPLTFGGGTKLEIKNDAQPAVYLFQPSPDQLHTGSASVVCLLNSFYPKDINVKWKVDGVIQDTGIQESVTEQDKDSTYSLSSTLTMSSTEYLSHELYSCEITHKSLPSTLIKSFQRSECQRVD
heavy: EVKLVESGGGLVQPGGSLKLSCATSGFTFSDYYMYWVRQTPEKRLEWVAYISNGGGSTYYPDTVKGRFTISRDNAKNTLYLQMSRLKSEDTAMYYCARHGGYYAMDYWGQGTLVTVSSASTTAPSVFPLAPSCGSTSGSTVALACLVSGYFPEPVTVSWNSGSLTSGVHTFPSVLQSSGLYSLSSMVTVPSSRWPSETFTCNVAHPASKTKVDKPVPKRENGRVPRPPDCPKCPAPEMLGGPSVFIFPPKPKDTLLIARTPEVTCVVVDLDPEDPEVQISWFVDGKQMQTAKTQPREEQFNGTYRVVSVLPIGHQDWLKGKQFTCKVNNKALPSPIERTISKARGQAHQPSVYVLPPSREELSKNTVSLTCLIKDFFPPDIDVEWQSNGQQEPESKYRTTPPQLDEDGSYFLYSKLSVDKSRWQRGDTFICAVMHEALHNHYTQKSLSHSPGK
B3: VET114 VET224 antibody variant (anti-CD52, canine FR4 in both chains) (antibody)
light: DIKMTQSPSFLSASVGDRVTLNCKASQNIDKYLNWYQQKLGESPKLLIYNTNNLQTGIPSRFSGSGSGTDFTLTISSLQPEDVATYFCLQHISRPRTFGGGTHLTVLGQPKASPSVTLFPPSSEELGANKATLVCLISDFYPSGVTVAWKADGSPITQGVETTKPSKQSNNKYAASSYLSLTPDKWKSHSSFSCLVTHEGSTVEKKVAPAECS
heavy: EVKLLESGGGLVQPGGSMRLSCAGSGFTFTDFYMNWIRQPAGKAPEWLGFIRDKAKGYTTEYNPSVKGRFTISRDNTQNMLYLQMNTLRAEDTATYYCAREGHTAAPFDYWGQGTLVTVSSASTTAPSVFPLAPSCGSTSGSTVALACLVSGYFPEPVTVSWNSGSLTSGVHTFPSVLQSSGLYSLSSMVTVPSSRWPSETFTCNVAHPASKTKVDKPVPKRENGRVPRPPDCPKCPAPEMLGGPSVFIFPPKPKDTLLIARTPEVTCVVVDLDPEDPEVQISWFVDGKQMQTAKTQPREEQFNGTYRVVSVLPIGHQDWLKGKQFTCKVNNKALPSPIERTISKARGQAHQPSVYVLPPSREELSKNTVSLTCLIKDFFPPDIDVEWQSNGQQEPESKYRTTPPQLDEDGSYFLYSKLSVDKSRWQRGDTFICAVMHEALHNHYTQKSLSHSPGK
notes: Constant domains are added as separate pieces because the printed entries are variable domains only
B4: VET112 VET223 antibody variant (anti-CD52, canine FR1 and FR4 in both chains) (antibody)
light: QSVLTQPASVSGSLGQRVTISCKASQNIDKYLNWYQQKLGESPKLLIYNTNNLQTGIPSRFSGSGSGTDFTLTISSLQPEDVATYFCLQHISRPRTFGGGTHLTVGQPKASPSVTLFPPSSEELGANKATLVCLISDFYPSGVTVAWKADGSPITQGVETTKPSKQSNNKYAASSYLSLTPDKWKSHSSFSCLVTHEGSTVEKKVAPAECS
heavy: EVQLVESGGDLVKPGGSLRLSCAGSGFTFTDFYMNWIRQPAGKAPEWLGFIRDKAKGYTTEYNPSVKGRFTISRDNTQNMLYLQMNTLRAEDTATYYCAREGHTAAPFDYWGQGTLVTVSSASTTAPSVFPLAPSCGSTSGSTVALACLVSGYFPEPVTVSWNSGSLTSGVHTFPSVLQSSGLYSLSSMVTVPSSRWPSETFTCNVAHPASKTKVDKPVPKRENGRVPRPPDCPKCPAPEMLGGPSVFIFPPKPKDTLLIARTPEVTCVVVDLDPEDPEVQISWFVDGKQMQTAKTQPREEQFNGTYRVVSVLPIGHQDWLKGKQFTCKVNNKALPSPIERTISKARGQAHQPSVYVLPPSREELSKNTVSLTCLIKDFFPPDIDVEWQSNGQQEPESKYRTTPPQLDEDGSYFLYSKLSVDKSRWQRGDTFICAVMHEALHNHYTQKSLSHSPGK
notes: as for B3
B5: VET111 VET222 chimeric antibody (rat anti-human CD52 variable domains on canine constant domains) (antibody)
light: DIKMTQSPSFLSASVGDRVTLNCKASQNIDKYLNWYQQKLGESPKLLIYNTNNLQTGIPSRFSGSGSGTDFTLTISSLQPEDVATYFCLQHISRPRTFGTGTKLELKGQPKASPSVTLFPPSSEELGANKATLVCLISDFYPSGVTVAWKADGSPITQGVETTKPSKQSNNKYAASSYLSLTPDKWKSHSSFSCLVTHEGSTVEKKVAPAECS
heavy: EVKLLESGGGLVQPGGSMRLSCAGSGFTFTDFYMNWIRQPAGKAPEWLGFIRDKAKGYTTEYNPSVKGRFTISRDNTQNMLYLQMNTLRAEDTATYYCAREGHTAAPFDYWGQGVMVTVSSASTTAPSVFPLAPSCGSTSGSTVALACLVSGYFPEPVTVSWNSGSLTSGVHTFPSVLQSSGLYSLSSMVTVPSSRWPSETFTCNVAHPASKTKVDKPVPKRENGRVPRPPDCPKCPAPEMLGGPSVFIFPPKPKDTLLIARTPEVTCVVVDLDPEDPEVQISWFVDGKQMQTAKTQPREEQFNGTYRVVSVLPIGHQDWLKGKQFTCKVNNKALPSPIERTISKARGQAHQPSVYVLPPSREELSKNTVSLTCLIKDFFPPDIDVEWQSNGQQEPESKYRTTPPQLDEDGSYFLYSKLSVDKSRWQRGDTFICAVMHEALHNHYTQKSLSHSPGK
notes: Expressed in 293F cells and used as supernatant or protein A purified
B6: VET114 VET223 antibody variant (anti-CD52) (antibody)
light: DIKMTQSPSFLSASVGDRVTLNCKASQNIDKYLNWYQQKLGESPKLLIYNTNNLQTGIPSRFSGSGSGTDFTLTISSLQPEDVATYFCLQHISRPRTFGGGTHLTVLGQPKASPSVTLFPPSSEELGANKATLVCLISDFYPSGVTVAWKADGSPITQGVETTKPSKQSNNKYAASSYLSLTPDKWKSHSSFSCLVTHEGSTVEKKVAPAECS
heavy: EVQLVESGGDLVKPGGSLRLSCAGSGFTFTDFYMNWIRQPAGKAPEWLGFIRDKAKGYTTEYNPSVKGRFTISRDNTQNMLYLQMNTLRAEDTATYYCAREGHTAAPFDYWGQGTLVTVSSASTTAPSVFPLAPSCGSTSGSTVALACLVSGYFPEPVTVSWNSGSLTSGVHTFPSVLQSSGLYSLSSMVTVPSSRWPSETFTCNVAHPASKTKVDKPVPKRENGRVPRPPDCPKCPAPEMLGGPSVFIFPPKPKDTLLIARTPEVTCVVVDLDPEDPEVQISWFVDGKQMQTAKTQPREEQFNGTYRVVSVLPIGHQDWLKGKQFTCKVNNKALPSPIERTISKARGQAHQPSVYVLPPSREELSKNTVSLTCLIKDFFPPDIDVEWQSNGQQEPESKYRTTPPQLDEDGSYFLYSKLSVDKSRWQRGDTFICAVMHEALHNHYTQKSLSHSPGK
notes: as for B3
B7: VET112 VET224 antibody variant (anti-CD52) (antibody)
light: QSVLTQPASVSGSLGQRVTISCKASQNIDKYLNWYQQKLGESPKLLIYNTNNLQTGIPSRFSGSGSGTDFTLTISSLQPEDVATYFCLQHISRPRTFGGGTHLTVGQPKASPSVTLFPPSSEELGANKATLVCLISDFYPSGVTVAWKADGSPITQGVETTKPSKQSNNKYAASSYLSLTPDKWKSHSSFSCLVTHEGSTVEKKVAPAECS
heavy: EVKLLESGGGLVQPGGSMRLSCAGSGFTFTDFYMNWIRQPAGKAPEWLGFIRDKAKGYTTEYNPSVKGRFTISRDNTQNMLYLQMNTLRAEDTATYYCAREGHTAAPFDYWGQGTLVTVSSASTTAPSVFPLAPSCGSTSGSTVALACLVSGYFPEPVTVSWNSGSLTSGVHTFPSVLQSSGLYSLSSMVTVPSSRWPSETFTCNVAHPASKTKVDKPVPKRENGRVPRPPDCPKCPAPEMLGGPSVFIFPPKPKDTLLIARTPEVTCVVVDLDPEDPEVQISWFVDGKQMQTAKTQPREEQFNGTYRVVSVLPIGHQDWLKGKQFTCKVNNKALPSPIERTISKARGQAHQPSVYVLPPSREELSKNTVSLTCLIKDFFPPDIDVEWQSNGQQEPESKYRTTPPQLDEDGSYFLYSKLSVDKSRWQRGDTFICAVMHEALHNHYTQKSLSHSPGK
notes: as for B3

target: target antigen of mab 231 on canine lymphoma cells (canine); assay: FACS on canine lymphoma cells positive for the mab 231 antigen, FITC anti-dog IgG secondary

Point of comparison: B1, Binding (%) 30.3%. Against it:
- B2 — lower, 20.8%

Target: T1, human CD52 on human T-cell lymphoma …
Assay: FACS on HUT-78 cells, about 2 ug primary antibody, FITC goat anti-dog IgG secondary
Description: The binding of the antibody variants of the present invention was assessed using a fluorescence-activated cell sorter (FACS). In the present example, the antibody variants were incubated with the CD52 positive cells and the amount of bound antibody was assessed following incubation with a fluorescent-labeled reporter reagent. The reporter was thereafter measured by FACS.
Briefly, for each assay, one million cells of the human T-cell lymphoma HUT-78 cells were resuspended in FACS buffer (PBS+2% FBS). About 2 ug of the primary antibody were added to the cells and the samples were incubated at 4° C. for 1 hour. The primary antibody was provided as supernatants from transfected cells with recombinant antibody constructs or from purified antibody preparation. The rat anti-human CD52 mAb (Serotec) was added to the cells as a control. One ml of FACS buffer was added and cells were spin down for 3 min at 800×g in Eppendorf microcentrifuge. The cells were washed with 1 ml FACS buffer and spin down again. The secondary antibodies such as fluorescein-isothiocynate (FITC) conjugated goat anti-rat (Jackson ImmunoResearch), or the FITC-conjugated goat anti-dog IgG (H+L) (Bethyl Laboratories) were added in 100 μl of FACS buffer supplemented with 1% BSA to appropriate tubes and the tubes were incubated at 4° C. for 30 minutes. The wash steps were repeated. The cells were then resuspended in 500 μl FACS buffer and transferred into 12×75 mm polystyrene test tubes. The cells were analyzed by FACS with a FacScan cytometer using the CellQuest software (Becton-Dickenson). Several controls were utilized to determine the background fluorescence: (i) one tube of cells was incubated with the FITC-conjugated secondary antibody without the primary antibody, (ii) one tube of cells was incubated with PBS only, and (iii) one tube was incubated with the primary antibody without the FITC-conjugated secondary antibody.

Point of comparison: B3, “Binding (%)” value 47.8%. Against it:
- B4 — lower, 24.4%
- B5 — higher, 51.4%
- B6 — lower, 40.1%
- B7 — lower, 30.6%

Source: patent US20130344077A1 (VET THERAPEUTICS, published 2013)
